These results are taken from patent publication US20240117054A1 (DRAGONFLY THERAPEUTICS, published 2024).

Residue numbers refer to the chain shown, from its start.

For assay [1], the target named is T1, human FLT3 (hFLT3) expressed on cells (human, UniProt P36888 27-993).
T1 construct: whole, on cells; One molecule for all cell lines that carry human FLT3; also called RMA-hFLT3; FLT3 on REH cells
T1 sequence (looked up): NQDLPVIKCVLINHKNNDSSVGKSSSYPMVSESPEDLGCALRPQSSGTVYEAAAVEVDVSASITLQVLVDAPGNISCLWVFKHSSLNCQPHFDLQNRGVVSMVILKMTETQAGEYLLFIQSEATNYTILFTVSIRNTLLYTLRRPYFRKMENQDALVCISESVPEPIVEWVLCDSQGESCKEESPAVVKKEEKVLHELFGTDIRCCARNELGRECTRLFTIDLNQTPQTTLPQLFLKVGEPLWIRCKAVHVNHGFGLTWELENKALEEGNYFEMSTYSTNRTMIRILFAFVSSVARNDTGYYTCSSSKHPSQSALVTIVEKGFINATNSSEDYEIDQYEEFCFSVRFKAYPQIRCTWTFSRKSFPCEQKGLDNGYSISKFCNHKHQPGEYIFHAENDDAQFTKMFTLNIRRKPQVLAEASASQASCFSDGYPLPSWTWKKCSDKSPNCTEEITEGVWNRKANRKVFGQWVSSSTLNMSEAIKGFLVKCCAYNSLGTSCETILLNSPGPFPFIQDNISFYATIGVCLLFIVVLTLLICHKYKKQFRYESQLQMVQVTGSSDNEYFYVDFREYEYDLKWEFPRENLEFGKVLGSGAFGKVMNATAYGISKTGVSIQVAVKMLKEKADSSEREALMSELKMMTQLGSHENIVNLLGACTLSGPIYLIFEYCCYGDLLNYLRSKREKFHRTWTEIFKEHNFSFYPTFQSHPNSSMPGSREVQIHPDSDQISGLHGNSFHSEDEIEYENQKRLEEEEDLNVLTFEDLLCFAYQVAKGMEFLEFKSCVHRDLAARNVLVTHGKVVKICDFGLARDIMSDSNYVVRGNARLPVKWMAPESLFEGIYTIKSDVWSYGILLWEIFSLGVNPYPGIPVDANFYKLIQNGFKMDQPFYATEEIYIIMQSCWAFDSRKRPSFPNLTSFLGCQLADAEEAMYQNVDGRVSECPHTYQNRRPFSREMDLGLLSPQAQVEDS
In words: flow cytometry, purified mAb on SEM cells.

The next assay addresses T2, hFLT3-His fusion protein (human, UniProt P36888 27-541, limits assumed).
T2 construct: Soluble recombinant antigen used for immunisation, ELISA, SPR and BLI binning; also called recombinant hFLT3 protein; not shown: His tag
T2 sequence (looked up): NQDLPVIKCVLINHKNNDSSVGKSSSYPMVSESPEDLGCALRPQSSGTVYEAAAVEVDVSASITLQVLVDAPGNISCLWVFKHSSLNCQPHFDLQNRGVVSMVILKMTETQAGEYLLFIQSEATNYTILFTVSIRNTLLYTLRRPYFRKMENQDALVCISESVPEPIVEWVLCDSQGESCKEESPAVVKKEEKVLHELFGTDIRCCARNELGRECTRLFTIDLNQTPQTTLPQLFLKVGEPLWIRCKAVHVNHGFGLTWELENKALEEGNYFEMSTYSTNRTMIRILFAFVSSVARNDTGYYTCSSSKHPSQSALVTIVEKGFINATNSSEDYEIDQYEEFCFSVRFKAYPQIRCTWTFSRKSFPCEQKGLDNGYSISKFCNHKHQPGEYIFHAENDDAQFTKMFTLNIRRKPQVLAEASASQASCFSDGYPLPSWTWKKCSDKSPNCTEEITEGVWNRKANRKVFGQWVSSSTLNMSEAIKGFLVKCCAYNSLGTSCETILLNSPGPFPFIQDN
In words: SPR, purified murine subclone mAb, hFLT3-His.

For assay [2], the target named is T3, cynomolgus monkey FLT3 (cFLT3) expressed on RMA cells (cynomolgus monkey, UniProt A0A2K5VQ48 27-993).
T3 construct: whole, on cells; also called RMA-cFLT3; cynomolgus FLT3
T3 sequence: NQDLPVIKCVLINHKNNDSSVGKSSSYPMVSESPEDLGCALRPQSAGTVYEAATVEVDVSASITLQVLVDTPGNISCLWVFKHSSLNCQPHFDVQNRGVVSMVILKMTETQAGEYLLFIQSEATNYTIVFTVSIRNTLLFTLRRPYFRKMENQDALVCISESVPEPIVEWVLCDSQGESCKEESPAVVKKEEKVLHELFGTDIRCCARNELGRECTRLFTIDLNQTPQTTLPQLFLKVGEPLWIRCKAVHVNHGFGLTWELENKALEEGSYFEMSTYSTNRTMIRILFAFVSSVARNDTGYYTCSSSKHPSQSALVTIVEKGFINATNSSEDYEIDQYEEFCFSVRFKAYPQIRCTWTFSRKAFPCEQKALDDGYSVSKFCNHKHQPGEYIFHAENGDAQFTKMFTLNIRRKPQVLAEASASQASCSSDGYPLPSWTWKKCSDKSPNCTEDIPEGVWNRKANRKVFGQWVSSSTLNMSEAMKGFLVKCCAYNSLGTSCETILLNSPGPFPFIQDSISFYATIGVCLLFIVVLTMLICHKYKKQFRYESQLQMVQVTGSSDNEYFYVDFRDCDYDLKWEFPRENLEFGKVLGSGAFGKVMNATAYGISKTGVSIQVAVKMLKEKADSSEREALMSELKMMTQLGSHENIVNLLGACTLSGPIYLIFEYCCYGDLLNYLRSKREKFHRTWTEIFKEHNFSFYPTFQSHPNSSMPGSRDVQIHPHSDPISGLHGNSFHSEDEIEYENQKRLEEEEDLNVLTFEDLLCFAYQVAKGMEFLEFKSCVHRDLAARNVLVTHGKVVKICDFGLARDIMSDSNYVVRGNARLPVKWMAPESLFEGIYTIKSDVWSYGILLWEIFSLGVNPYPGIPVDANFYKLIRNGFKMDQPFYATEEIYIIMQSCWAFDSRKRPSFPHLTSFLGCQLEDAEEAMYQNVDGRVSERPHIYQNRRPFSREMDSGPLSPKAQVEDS
In words: flow cytometry, purified mAb on RMA-cFLT3 cells.

In assay [3] the target is T1, human FLT3 (hFLT3) expressed on cells. In words: flow cytometry, purified mAb on RMA-hFLT3 cells.
Assay [4] shares this target. In words: cell-based or functional assay.
The target of assay [5] is T4, FLT3-T227M expressed on MOLM-13 cells (human, UniProt P36888 27-993).
T4 construct: whole, on cells; also called hFLT3-T227M; FLT3 with T227M mutation
T4 sequence (looked up): T1 sequence (looked up) with T201M
In words: flow cytometry on MOLM-13 cells (FLT3-T227M), anti-human IgG secondary antibody, gMFI. From the text: (§1) Isogenic cell lines ectopically expressing human and cynomolgus monkey FLT3 were used to assess cross-reactivity between human and cynomolgus monkey FLT3. […] cancer cell line RMA expressing hFLT3 or cFLT3 was used to assess tumor antigen binding of FLT3-targeting TriNKET and parental mAb. The human AML cell lines MOLM-13 and MV4-11 and the human ALL cell line REH were used to assess binding ability of the TriNKET or parental mAb. In particular, MOLM-13 cells and MV4-11 cells, which expressed FLT3-T227M and FLT3-ITD, respectively, were used to assess the ability of the FLT3-targeting TriNKET and parental mAb to bind mutant FLT3.
(§2) The cells were then incubated with a fluorophore conjugated anti-human IgG secondary antibody and were analyzed by flow cytometry. The mean fluorescence intensity (MFI) values were normalized to secondary antibody only controls to obtain fold over background (FOB) values.

Assay [6] addresses T1, human FLT3 (hFLT3) expressed on cells. In words: flow cytometry on REH cells, anti-human IgG secondary antibody, fold over background (FOB).
Source text: as §1, §2

For assay [7] the target is unchanged. In words: flow cytometry on RMA-hFLT3 cells, anti-human IgG secondary antibody, fold over background (FOB).
Source text: as §1, §2

Assay [8] has as its target T3, cynomolgus monkey FLT3 (cFLT3) …. In words: flow cytometry on RMA-cFLT3 cells, anti-human IgG secondary antibody, fold over background (FOB).
Source text: as §1, §2

B1: 15A11.C8 (antibody, V domains shown)
VH: EVQLQESGGGLVKTGGSRKLSCAASGFTFSDYGMHWVRHTPEKGLEWVVYISSGGNTIFYTDTVKGRFTISRDNAKNTLFLQMTSLRSEDTAVYFCVRQGYYYAMDYWGQGASVTVSS
VL: DIQMTQTTSSLSASLGDRVTIRCRASQDITNYLNWYQQKPDGAVKLLISYTSILQSGVPSRFSGSGSGTDYSLTISNLEQGDVATYFCQQGSSLPWTFGGGTKLEIK
notes: Purified murine mAb from a hybridoma subclone
In the case of B1, in [1], the EC50 was approximately 1130 pM and the “Max MFI” value is 3860 MFI. Moreover, in the assay with hFLT3-His fusion protein, the Kd stood at 10500 pM, the koff stood at 0.00048 s⁻¹ and the kon was found to be 45000 M⁻¹ s⁻¹. In assay [2], the EC50 is 820 pM and the “Max MFI” value was 6510 MFI. In addition, in assay [3], the EC50 was 410 pM and the “Max MFI” value came out at 1410 MFI.

B2: FLT3-ligand (ligand, human, UniProt P49771 27-185, looked up)
chain: TQDCSFQHSPISSDFAVKIRELSDYLLQDYPVTVASNLQDEELCGGLWRLVLAQRWMERLKTVAGSKMQGLLERVNTEIHFVTKCAFQPPPSCLRFVQTNISRLLQETSEQLVALKPWITRQNFSRCLELQCQPDSSTLPPPWSPRPLEATAPTAPQPP
For B2, the “pFLT3 levels (pFLT3 ELISA, EOL-1 cells)” value in assay [4] came out at 3 fold.

B3: GB102 monoclonal antibody in the human IgG1 format (antibody, V domains shown)
VH: QVQLVQSGAEVKKPGASVKVSCKASGYTFTRYVMHWVRQAPGQRLEWMGFINPYNDDTKYNEKFKGRVTITRDTSASTAYMELSSLRSEDTAVYYCARWRQLGSLDSWGQGTTVTVSS
VL: DIVMTQSPDSLAVSLGERATINCRASESVDTYGSSFVHWYQQKPGQPPKLLIYLASNLESGVPDRFSGSGSGTDFTLTISSLQAEDVAVYYCQQNNEEPWTFGGGTKVEIK
notes: also called parental mAb
As to B3, the “EC50 (read off the curve)” value in assay [5] is approximately 2000 pM; in [6], approximately 1000 pM; in [7] it was approximately 500 pM; in assay [8], approximately 600 pM.
